doi:10.1101/780452, “Development of c-type lectin oriented surfaces for high avidity glycoconjugates: towards mimicking multivalent interactions on the cell surface” (bioRxiv, 2019)

Target: T1, BSA-Man (glycoprotein bearing 12 glycosylated sites) (bovine (from the name BSA), UniProt P02769 25-607, 12 glycosylated sites (mannose glycans, up to 12 glycans displayed))
T1 construct: BSA (serum albumin) carrying mannose glycans; A neoglycoprotein; also called Man-BSA
Experiment: SPR; BSA-Man titrated over a DC-SIGN S-ECD oriented surface (StrepTactin-functionalised CM3 chip, Biacore T200); 25 mM Tris pH 8, 150 mM NaCl, 4 mM CaCl2, 0.05% P20; steady state affinity model; apparent KD for the surface
Settings: both partners purified

T1 sequence (P02769 25-607): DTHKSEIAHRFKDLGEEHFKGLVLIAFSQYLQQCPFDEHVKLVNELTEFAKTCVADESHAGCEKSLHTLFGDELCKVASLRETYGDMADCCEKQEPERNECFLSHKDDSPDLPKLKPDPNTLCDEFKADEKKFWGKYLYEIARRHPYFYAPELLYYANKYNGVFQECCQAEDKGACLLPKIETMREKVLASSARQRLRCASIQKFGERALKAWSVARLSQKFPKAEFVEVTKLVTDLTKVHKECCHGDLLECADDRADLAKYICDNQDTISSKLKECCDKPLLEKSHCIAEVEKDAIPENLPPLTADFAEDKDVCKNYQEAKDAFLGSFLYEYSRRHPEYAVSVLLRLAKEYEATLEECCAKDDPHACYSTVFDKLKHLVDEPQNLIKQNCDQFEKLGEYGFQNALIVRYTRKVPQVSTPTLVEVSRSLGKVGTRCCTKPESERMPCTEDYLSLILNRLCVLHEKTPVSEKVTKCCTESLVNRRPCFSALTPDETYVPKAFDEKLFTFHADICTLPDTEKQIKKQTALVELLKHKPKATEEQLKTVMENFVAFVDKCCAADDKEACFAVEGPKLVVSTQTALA

B1: DC-SIGN S-ECD (DC-SIGN extracellular domain tagged at its N-terminus with a StreptagII) (domain or fragment, UniProt Q9NNX6 66-404, looked up)
chain: SISQEQSRQDAIYQNLTQLKAAVGELSEKSKLQEIYQELTQLKAAVGELPEKSKLQEIYQELTRLKAAVGELPEKSKLQEIYQELTWLKAAVGELPEKSKMQEIYQELTRLKAAVGELPEKSKQQEIYQELTRLKAAVGELPEKSKQQEIYQELTRLKAAVGELPEKSKQQEIYQELTQLKAAVERLCHPCPWEWTFFQGNCYFMSNSQRNWHDSITACKEVGAQLVVIKSAEEQNFLQLQSSRSNRFTWMGLSDLNQEGTWQWVDGSPLLPSFKQYWNRGEPNNVGEEDCAEFSGNGWNDDKCNLAKFWICKKSAASCSRDEEQFLSPAPATPNPPPA
notes: DC-SIGN (Dendritic Cell specific ICAM-3 Grabbing Non-integrin), extracellular domain, amino acids 66-404; A factor Xa cleavage site lies between the N-terminal StreptagII and the ECD; On the chip the protein was captured by StrepTactin and then covalently fixed with EDC/NHS; source: E. coli Rosetta (DE3), inclusion bodies, purified (StrepTactin column, Mannan-agarose, Superose-12); not shown: …
B1 showed a Kd of 5 nM.
